Laboratory results as given in patent US20210179728A1 (OSE IMMUNOTHERAPEUTICS, published 2021).
Each block holds one binder with its values, some of them ahead of it.

Legend:
[1] = molecular target: T1, recombinant hSIRPg-His (Sino Biologicals, reference 11828-H08H) (human, UniProt Q9P1W8 29-360); experiment: Blitz, SIRPg-His on Ni-NTA biosensor
T1 construct: also called human SIRPg-His; not shown: His tag
Procedure: (§1) Method: This method was performed with a Blitz (Forte Bio; USA; reference C22-2 No 61010-1). Recombinant hSIRPg-His (Sino Biologicals, Beijing, China; reference 11828-H08H) was immobilized at 10 μg/ml by histidine tail into a Ni-NTA biosensor (Forte Bio; USA; reference 18-0029) for 30 seconds. Then, an anti-SIRPa antibody was associated at 20 μg/mL for 120 seconds. The dissociation of anti-SIRPa antibody was made in kinetics buffer for 120 seconds. Analysis of data was made with the Blitz pro 1.2 software, which calculated association constant (ka) and dissociation constant (kd) and determined the affinity constant KD […].

[2] = molecular target: T2, recombinant hSIRPb-His (Antibodies-online, reference ABIN3077231) (human, UniProt Q5TFQ8 30-371); experiment: BLI (Blitz); SIRPb-His on Ni-NTA biosensor, antibody at 20 ug/ml [B, table A]
T2 construct: also called SIRPb-His (Blitz); not shown: His tag
T2 sequence (Q5TFQ8 30-371): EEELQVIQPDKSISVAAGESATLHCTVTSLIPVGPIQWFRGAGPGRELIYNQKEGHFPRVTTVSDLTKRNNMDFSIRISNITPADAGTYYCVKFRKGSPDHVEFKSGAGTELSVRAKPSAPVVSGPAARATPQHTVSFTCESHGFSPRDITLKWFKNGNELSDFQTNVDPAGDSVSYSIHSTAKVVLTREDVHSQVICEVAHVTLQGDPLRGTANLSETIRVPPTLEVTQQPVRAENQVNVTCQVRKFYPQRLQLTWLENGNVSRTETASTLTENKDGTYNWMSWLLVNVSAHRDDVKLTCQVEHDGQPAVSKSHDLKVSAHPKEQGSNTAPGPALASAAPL
Procedure: FIG. 7. (A) Affinity analysis by Blitz of anti-SIRP antibodies on human SIRPb recombinant protein. SIRPb-His recombinant protein was immobilized onto a NINTA biosensor and the indicated antibodies were added at 20 μg/ml. […] (B) Binding analysis of anti-SIRP antibodies (human SIRPb-His coating and anti-human kappa detection).
as §1, with “hSIRPb-His (Antibodies-online; USA;” for “hSIRPg-His (Sino Biologicals, Beijing, China;”, “ABIN3077231)” for “11828-H08H)”

[3] = molecular target: T3, recombinant hSIRPa (Sino Biologicals, reference 11612-H08H) (human, UniProt P78324 31-370); experiment: ELISA on immobilized hSIRPa-His, anti-human IgG detection, first experiment; first experiment
T3 construct: also called SIRPa-His; human SIRPa-His; not shown: His tag (histidine tail)
T3 sequence (P78324 31-370 limits assumed): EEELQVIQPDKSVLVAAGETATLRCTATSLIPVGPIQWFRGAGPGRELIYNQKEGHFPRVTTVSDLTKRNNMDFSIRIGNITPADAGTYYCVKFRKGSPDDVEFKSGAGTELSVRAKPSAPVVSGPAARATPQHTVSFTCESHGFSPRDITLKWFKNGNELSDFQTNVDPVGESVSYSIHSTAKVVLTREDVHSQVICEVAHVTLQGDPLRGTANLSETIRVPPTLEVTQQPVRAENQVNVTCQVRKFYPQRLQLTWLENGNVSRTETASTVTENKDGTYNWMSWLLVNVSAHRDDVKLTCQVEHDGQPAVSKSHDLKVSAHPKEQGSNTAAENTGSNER
Procedure: Method: The binding activity of the anti-SIRPa antibodies was assessed by ELISA.

[4] = molecular target: T3, recombinant hSIRPa (Sino Biologicals, …); experiment: SPR (Biacore); SIRPa-His immobilized on CM5 chip, antibody injected
Procedure, shortened: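 His-tagged recombinant human SIRPa was coupled to a CM5 chip at 5 μg/ml (500 RU). Anti-SIRP antibodies were injected at several concentrations at 40 μl/min on a BIAcore 3000.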

[5] = molecular target: T1, recombinant hSIRPg-His (Sino …); experiment: BLI (Blitz); SIRPg-His on Ni-NTA biosensor, antibody at 10 ug/ml or 20 ug/ml (Example 9) [B, table A]
Procedure: FIG. 8. (A) Affinity analysis by Blitz of anti-SIRP antibodies on human SIRPg recombinant protein. SIRPg-His recombinant protein was immobilized onto a NINTA biosensor and the indicated antibodies were added at 10 μg/ml. […] (B) Binding analysis by ELISA assay of anti-SIRP antibodies on SIRPg (human SIRPg-His coating and anti-human kappa detection).
as §1

[6] = molecular target: T3, recombinant hSIRPa (Sino Biologicals, …); experiment: competition ELISA on immobilized SIRPa-His; competitor biotinylated CD47-Fc at 6 ug/ml, streptavidin-peroxidase [second experiment table]
Procedure: Method: For competitive ELISA assay, recombinant hSIRPa (Sino Biologicals, Beijing, China; reference 11612-H08H) was immobilized on plastic at 0.5 μg/ml in carbonate buffer (pH9.2).

[7] = molecular target: T3, recombinant hSIRPa (Sino Biologicals, …); experiment: ELISA on immobilized hSIRPa-His, anti-human IgG detection

T1 sequence (Q9P1W8 29-360 limits assumed): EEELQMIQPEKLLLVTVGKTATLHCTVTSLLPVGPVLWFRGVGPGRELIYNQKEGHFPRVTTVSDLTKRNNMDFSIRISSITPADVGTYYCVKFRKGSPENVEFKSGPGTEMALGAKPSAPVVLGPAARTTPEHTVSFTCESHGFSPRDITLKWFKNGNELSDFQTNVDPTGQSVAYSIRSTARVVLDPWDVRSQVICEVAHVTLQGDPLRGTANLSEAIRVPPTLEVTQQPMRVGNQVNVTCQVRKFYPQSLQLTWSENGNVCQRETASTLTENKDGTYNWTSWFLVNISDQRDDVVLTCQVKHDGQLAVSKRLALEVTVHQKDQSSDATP

Kd [1]: 104 nM
Kd [2]: 26 nM
koff [2]: 0.00174 s⁻¹
kon [2]: 66900 M⁻¹ s⁻¹
EC50 [3]: 4 ng/mL
Kd [4]: 0.315 nM
koff [4]: 0.000249 s⁻¹
kon [4]: 791000 M⁻¹ s⁻¹
koff [5]: 0.0123 s⁻¹
kon [5]: 119000 M⁻¹ s⁻¹
IC50 [6]: 0.183 µg/mL
B1: HFLB (antibody, human IgG4 S228P, kappa, V domains shown)
VH: EVQLVQSGAEVKKPGESLRISCKASGYSFTSYWVHWVRQMPGKGLEWMGNIDPSDSDTHYSPSFQGHVTLSVDKSISTAYLQLSSLKASDTAMYYCVRGGTGTMAYFAYWGQGTLVTVSS
VL: DVVMTQSPLSLPVTLGQPASISCRSSQSLVHSYGNTYLYWFQQRPGQSPRLLIYRVSNRFSGVPDRFSGSGSGTDFTLKISRVEAEDVGVYYCFQGTHVPYTFGGGTKVEIKR
notes: humanized 18D5 variant

EC50 [7]: 3.3 ng/mL
Kd [2]: 2.77 nM
koff [2]: 0.000794 s⁻¹
kon [2]: 286000 M⁻¹ s⁻¹
Kd [4]: 0.367 nM
koff [4]: 8.95e-05 s⁻¹
kon [4]: 244000 M⁻¹ s⁻¹
Kd [5]: 2.14 nM
koff [5]: 0.000765 s⁻¹
kon [5]: 357000 M⁻¹ s⁻¹
B2: Kwar23 (antibody, V domains shown)
VH: EVQLQQSGAELVKPGASVKLSCTASGFNIKDYYIHWVQQRTEQGLEWIGRIDPEDGETKYAPKFQDKATITADTSSNTAYLHLSSLTSEDTAVYYCARWGAYWGQGTLVTVSS
VL: QIVLTQSPAIMSASPGEKVTLTCSASSSVSSSYLYWYQQKPGSSPKLWIYSTSNLASGVPARFSGSGSGTSYSLTISSMEAEDAASYFCHQWSSYPRTFGAGTKLELK
